Changes are numbered by the printed parent chain. Names and notes keep the numbering of the source.
T1: EsCas13d, nuclease-dead (Eubacterium siraeum, UniProt B0MS50, R295A;H300A;R849A;H854A)
T1 sequence: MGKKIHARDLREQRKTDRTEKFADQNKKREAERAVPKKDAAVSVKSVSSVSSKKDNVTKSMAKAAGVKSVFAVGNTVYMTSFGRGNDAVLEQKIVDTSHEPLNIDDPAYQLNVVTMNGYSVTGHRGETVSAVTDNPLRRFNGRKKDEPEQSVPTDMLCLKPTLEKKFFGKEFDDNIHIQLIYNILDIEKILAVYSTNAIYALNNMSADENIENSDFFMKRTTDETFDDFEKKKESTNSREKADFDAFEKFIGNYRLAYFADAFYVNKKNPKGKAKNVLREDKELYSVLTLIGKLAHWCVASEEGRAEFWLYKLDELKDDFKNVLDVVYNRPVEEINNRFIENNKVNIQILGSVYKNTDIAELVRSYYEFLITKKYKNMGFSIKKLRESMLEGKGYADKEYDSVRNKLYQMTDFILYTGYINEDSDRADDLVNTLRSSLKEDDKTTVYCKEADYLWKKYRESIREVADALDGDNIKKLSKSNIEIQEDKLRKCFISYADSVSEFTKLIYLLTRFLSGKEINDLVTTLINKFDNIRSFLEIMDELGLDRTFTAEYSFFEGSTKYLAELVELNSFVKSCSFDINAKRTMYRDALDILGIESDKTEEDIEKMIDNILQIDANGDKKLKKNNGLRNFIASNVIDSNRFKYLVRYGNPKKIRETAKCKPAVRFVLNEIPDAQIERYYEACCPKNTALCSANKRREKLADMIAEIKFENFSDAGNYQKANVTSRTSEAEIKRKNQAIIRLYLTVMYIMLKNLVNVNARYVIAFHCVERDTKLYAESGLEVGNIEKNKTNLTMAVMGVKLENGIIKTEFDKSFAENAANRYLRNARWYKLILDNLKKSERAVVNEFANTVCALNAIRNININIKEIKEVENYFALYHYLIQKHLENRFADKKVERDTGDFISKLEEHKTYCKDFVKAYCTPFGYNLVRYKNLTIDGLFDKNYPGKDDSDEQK

B1: target 2 MT 5'PFS GGU 3'PFS ACU (mixed)
RNA 1: CACCCGUGCAAAAUUGCAGGGGUCUAAAACCUUCUCCAAAUUGUUUCAUCCU
RNA 2: GGGAAUGGAUCCACAUCUACGAAUUCGGUAGGAUGAAACAAUUUGGAGAAGACUAGAUCGGAAGAGCACACGU
B2: target 2 MT 5'PFS GCG 3'PFS AUC (mixed)
RNA 1: B1 RNA 1
RNA 2: B1 RNA 2 with G28C, U29G, C53U, U54C
B3: target 2 MT 5'PFS CGC 3'PFS UCC (mixed)
RNA 1: B1 RNA 1
RNA 2: B1 RNA 2 with G27C, U29C, A52U, U54C
B4: target 2 MT 5'PFS GCG 3'PFS UUC (mixed)
RNA 1: B1 RNA 1
RNA 2: B1 RNA 2 with G28C, U29G, A52U, C53U, U54C
B5: target 2 MT 5'PFS GUU 3'PFS AUG (mixed)
RNA 1: B1 RNA 1
RNA 2: B1 RNA 2 with G28U, C53U, U54G
B6: target 2 MT 5'PFS CUC 3'PFS AAA (mixed)
RNA 1: B1 RNA 1
RNA 2: B1 RNA 2 with G27C, G28U, U29C, C53A, U54A
B7: target 2 MT 5'PFS UGU 3'PFS UGU (mixed)
RNA 1: B1 RNA 1
RNA 2: B1 RNA 2 with G27U, A52U, C53G
B8: target 2 MT 5'PFS GGU 3'PFS ACG (mixed)
RNA 1: B1 RNA 1
RNA 2: B1 RNA 2 with U54G
B9: target 2 MT 5'PFS GCG 3'PFS UUA (mixed)
RNA 1: B1 RNA 1
RNA 2: B1 RNA 2 with G28C, U29G, A52U, C53U, U54A
B10: target 2 MT 5'PFS CGC 3'PFS UCG (mixed)
RNA 1: B1 RNA 1
RNA 2: B1 RNA 2 with G27C, U29C, A52U, U54G
B11: target 2 MT 5'PFS ACC 3'PFS CAG (mixed)
RNA 1: B1 RNA 1
RNA 2: B1 RNA 2 with G27A, G28C, U29C, A52C, C53A, U54G
B12: target 2 MT 5'PFS CAC 3'PFS UAA (mixed)
RNA 1: B1 RNA 1
RNA 2: B1 RNA 2 with G27C, G28A, U29C, A52U, C53A, U54A
B13: target 2 MT 5'PFS CAA 3'PFS CCG (mixed)
RNA 1: B1 RNA 1
RNA 2: B1 RNA 2 with G27C, G28A, U29A, A52C, U54G
B14: target 2 MT 5'PFS CUC 3'PFS AAC (mixed)
RNA 1: B1 RNA 1
RNA 2: B1 RNA 2 with G27C, G28U, U29C, C53A, U54C
B15: target 2 MT 5'PFS CUC 3'PFS AAG (mixed)
RNA 1: B1 RNA 1
RNA 2: B1 RNA 2 with G27C, G28U, U29C, C53A, U54G
B16: target 2 MT 5'PFS CGC 3'PFS UCA (mixed)
RNA 1: B1 RNA 1
RNA 2: B1 RNA 2 with G27C, U29C, A52U, U54A
B17: target 2 MT 5'PFS GCG 3'PFS AUA (mixed)
RNA 1: B1 RNA 1
RNA 2: B1 RNA 2 with G28C, U29G, C53U, U54A
B18: target 2 MT 5'PFS GUU 3'PFS UCU (mixed)
RNA 1: B1 RNA 1
RNA 2: B1 RNA 2 with G28U, A52U
B19: target 2 MT 5'PFS CUC 3'PFS AAU (mixed)
RNA 1: B1 RNA 1
RNA 2: B1 RNA 2 with G27C, G28U, U29C, C53A
B20: target 2 MT 5'PFS UGG 3'PFS CAG (mixed)
RNA 1: B1 RNA 1
RNA 2: B1 RNA 2 with G27U, U29G, A52C, C53A, U54G
B21: target 2 MT 5'PFS GUU 3'PFS AUU (mixed)
RNA 1: B1 RNA 1
RNA 2: B1 RNA 2 with G28U, C53U
B22: target 2 MT 5'PFS GGU 3'PFS ACA (mixed)
RNA 1: B1 RNA 1
RNA 2: B1 RNA 2 with U54A
B23: target 2 MT 5'PFS CAC 3'PFS UAU (mixed)
RNA 1: B1 RNA 1
RNA 2: B1 RNA 2 with G27C, G28A, U29C, A52U, C53A
B24: target 2 MT 5'PFS GUU 3'PFS UCC (mixed)
RNA 1: B1 RNA 1
RNA 2: B1 RNA 2 with G28U, A52U, U54C
B25: target 2 MT 5'PFS AGC 3'PFS AUA (mixed)
RNA 1: B1 RNA 1
RNA 2: B1 RNA 2 with G27A, U29C, C53U, U54A
B26: target 2 MT 5'PFS GUU 3'PFS AUA (mixed)
RNA 1: B1 RNA 1
RNA 2: B1 RNA 2 with G28U, C53U, U54A
B27: target 2 MT 5'PFS AGC 3'PFS AUG (mixed)
RNA 1: B1 RNA 1
RNA 2: B1 RNA 2 with G27A, U29C, C53U, U54G
B28: target 2 MT 5'PFS UAU 3'PFS GAA (mixed)
RNA 1: B1 RNA 1
RNA 2: B1 RNA 2 with G27U, G28A, A52G, C53A, U54A
B29: target 2 MT 5'PFS AGC 3'PFS AUC (mixed)
RNA 1: B1 RNA 1
RNA 2: B1 RNA 2 with G27A, U29C, C53U, U54C
B30: target 2 MT 5'PFS ACC 3'PFS CAA (mixed)
RNA 1: B1 RNA 1
RNA 2: B1 RNA 2 with G27A, G28C, U29C, A52C, C53A, U54A
B31: target 2 MT 5'PFS GCG 3'PFS AUG (mixed)
RNA 1: B1 RNA 1
RNA 2: B1 RNA 2 with G28C, U29G, C53U, U54G
B32: target 2 MT 5'PFS UGG 3'PFS CAA (mixed)
RNA 1: B1 RNA 1
RNA 2: B1 RNA 2 with G27U, U29G, A52C, C53A, U54A
B33: target 2 MT 5'PFS CAC 3'PFS UAC (mixed)
RNA 1: B1 RNA 1
RNA 2: B1 RNA 2 with G27C, G28A, U29C, A52U, C53A, U54C
B34: target 2 MT 5'PFS ACU 3'PFS UGU (mixed)
RNA 1: B1 RNA 1
RNA 2: B1 RNA 2 with G27A, G28C, A52U, C53G
B35: target 2 MT 5'PFS CAA 3'PFS CCA (mixed)
RNA 1: B1 RNA 1
RNA 2: B1 RNA 2 with G27C, G28A, U29A, A52C, U54A
B36: target 1 G5U,C21A (mixed)
RNA 1: CACCCGUGCAAAAAUGCAGGGGUCUAAAACUGAGCGGAUAACCUCUCUAUGG
RNA 2: GGGAAUGGAUCCACAUCUACGAAUUCGUACAAUAGAGAGGUUAUCCUCUCACCGAGAUCGGAAGAGCACACGU
B37: target 1 insG 3' of 22,insC 3' of 12 (mixed)
RNA 1: B36 RNA 1
RNA 2: GGGAAUGGAUCCACAUCUACGAAUUCGUACGCAUAGAGAGGCUUAUCCGCUCACCGAGAUCGGAAGAGCACACGU
B38: target 1 insA 3' of 12,insU 3' of 4 (mixed)
RNA 1: B36 RNA 1
RNA 2: GGGAAUGGAUCCACAUCUACGAAUUCGUACCAUAGAGAGGAUUAUCCGCUUCACCGAGAUCGGAAGAGCACACGU

Target: T1, EsCas13d, nuclease-dead
Assay: crRNA (strand 1, pre-loaded); Mg2+; 40 mM Tris-HCl pH 7.5, 150 mM NaCl, 6 mM MgCl2, 1 mM DTT, 0.1% Tween-20, 0.2 mg/ml BSA; 25 C; 10 min per concentration, then washed
Details: tags: His6-TwinStrep-SUMO cleaved; N-terminal SNAP kept (SNAP-Surface 488); label: 3' end held by stalled T7 RNA polymerase

| Binder | Kd |
| --- | --- |
| B1 | 17.8 ± 1.7 nM |
| B2 | 10.1 ± 0.9 nM |
| B3 | ~60 nM |
| B4 | 21 ± 4 nM |
| B5 | 19.6 ± 2.4 nM |
| B6 | 2.3 ± 0.6 nM |
| B7 | 18.9 ± 2.7 nM |
| B8 | 18.2 ± 1.8 nM |
| B9 | 21 ± 4 nM |
| B10 | 7.9 ± 1.1 nM |
| B11 | 5.1 ± 0.9 nM |
| B12 | 2.3 ± 0.4 nM |
| B13 | 7.3 ± 2.9 nM |
| B14 | 2.5 ± 0.5 nM |
| B15 | 2.32 ± 0.34 nM |
| B16 | 5.5 ± 1.7 nM |
| B17 | 10.6 ± 2.1 nM |
| B18 | 23.9 ± 3.1 nM |
| B19 | 2.32 ± 0.27 nM |

| Binder | Kd |
| --- | --- |
| B20 | 6.2 ± 0.8 nM |
| B21 | 11.6 ± 1.4 nM |
| B22 | 13.4 ± 1.7 nM |
| B23 | 1.87 ± 0.31 nM |
| B24 | 36 ± 5 nM |
| B25 | 7.1 ± 1.3 nM |
| B26 | 13.3 ± 1.9 nM |
| B27 | 12.6 ± 2.9 nM |
| B28 | 14.3 ± 3.1 nM |
| B29 | 10.9 ± 2.8 nM |
| B30 | ~4.3 nM |
| B31 | 15.5 ± 2.1 nM |
| B32 | 4.7 ± 0.8 nM |
| B33 | 1.66 ± 0.25 nM |
| B34 | 8.1 ± 1 nM |
| B35 | 10 ± 5 nM |
| B36 | ~40 nM |
| B37 | 42 ± 6 nM |
| B38 | 26.3 ± 1.7 nM |
